± gives the standard deviation.
Experiment: protein stability index of a GFP-peptide fusion (GPS, HEK-293T) (PSI 1-6); higher = more stable
Conditions: c terminus: a fixed tail appended
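Further: 24-mer peptide tiles fused after GFP, lentivirally expressed, FACS-sorted into six equal bins by GFP/DsRed ratio, decoded by Illumina sequencing, PSI is the read-weighted mean bin number.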

| Sequence | protein stability index (treatment: DMSO) | protein stability index (treatment: MLN4924 1 uM, 8 h) |
| --- | --- | --- |
| KKSRSPASAEAPGDSGERSEGEAM [ZNF511] | 5.53 ± 0.39 | 5.57 ± 0.1 |
| KDTRMAEEYCHKHYDRNKDGNKDV [VPS39] | 4.68 ± 0.21 | 5.03 ± 0.23 |
| IEDLEVTCTWKLPTLAKFSPYLGQ [PRAME] | 2.62 ± 0.32 | 2 ± 0.58 |
| AESRELPVRCAGDWLPRGLGWGGR [ALG2] | 2.53 ± 0.053 | 2.54 ± 0.29 |
| GASDNSIIMWDIGGRKGRTLLLQG [WDFY1] | 2.15 ± 0.36 | 2.19 ± 0.35 |
| DVEAWFNTQTEELNQQVVSSSEQL [KRT36] | 4.65 ± 0.22 | 4.73 ± 0.15 |
| LYRDVMLETFGHLLSIGPELPKPE [ZNF8] | 2.26 ± 0.27 | 2.56 ± 0.46 |
| GMNGQMLCNLGKERFLELAPDFVG [ETS2] | 2.89 ± 0.32 | 2.91 ± 0.21 |
| GRSSLTACSLPLCACLLGQKMLRH [PXN] | 2.32 ± 0.28 | 2.19 ± 0.16 |
| TNALIGGPMPMSMPNVMTGTMGMA [CLINT1] | 3 ± 0.16 | 3.03 ± 0.18 |
| AKFDFLTRKHHCRRCGKCFCDRCC [ZFYVE21] | 3.08 ± 0.29 | 3.45 ± 0.44 |
| HTETGEEVLRMCVAVKKKLQLYFW [VPS39] | 2.8 ± 0.85 | 2.82 ± 0.33 |
| LTTKDYMEMYNVIMTVKEDQFSAL [SLC6A17] | 2.37 ± 0.39 | 2.38 ± 0.29 |
| VIGFAKMIPGFRDLTSEDQIVLLK [VDR] | 2.36 ± 0.51 | 2.42 ± 0.46 |
| YLKKNHEEEMNALRGQVGGEINVE [KRT17] | 4.39 ± 0.23 | 4.75 ± 0.12 |
| AGLDWQSLGQMKELGVIFYNCSCL [PLD5] | 3.12 ± 0.15 | 3.26 ± 0.43 |
| RREKAVHRLRVQQAALRAARLRHQ [NOP53] | 3.6 ± 0.41 | 3.71 ± 0.34 |
| MERLRELQRASILDMRRDHEEQLQ [FBF1] | 4.28 ± 0.28 | 4.42 ± 0.29 |
| TGTPLVAGSPIRHENAVQGSAVEV [ISL2] | 4.48 ± 0.22 | 4.45 ± 0.18 |
| KVRALEEANADLEVKIRDWHLKQS [KRT13] | 4.05 ± 0.2 | 4.22 ± 0.13 |
| APMVAGALARLGTVTVISPLELMR [SLC25A39] | 2.35 ± 0.22 | 2.41 ± 0.32 |
| NKPREHIIDCGDIVWSLAFGSSVP [WSB1] | 2.17 ± 0.38 | 2.07 ± 0.2 |
| FNCIRAAIAPFQSAGSPPELQGLP [NET1] | 2.67 ± 0.2 | 2.72 ± 0.2 |

| Sequence | protein stability index (treatment: DMSO) | protein stability index (treatment: MLN4924 1 uM, 8 h) |
| --- | --- | --- |
| YYFIMACDQYSCALTGPVVDIVTG [DHCR7] | 3.35 ± 0.17 | 3.26 ± 0.53 |
| QRVEQLTRDLAGLRQFFKQLPSPP [CEBPD] | 2.71 ± 0.34 | 2.82 ± 0.29 |
| VVHEDFREDILSCYDVYSPDKEEQ [PKD2L1] | 4.7 ± 0.33 | 4.69 ± 0.082 |
| EEEKKKMEESKAKFENLCKLMKEI [HSP90AB1] | 4.43 ± 0.36 | 4.58 ± 0.49 |
| SLLFVVMFIPETKGCSLEQISMEL [SLC2A12] | 2.93 ± 0.53 | 3.2 ± 0.13 |
| RIHSGEKPYGCVECGKAFSRSSIL [ZNF24] | 2.24 ± 0.31 | 2.83 ± 0.23 |
| IEPYITNFFNQVLMLGKTSISDLS [PDS5B] | 3.01 ± 0.42 | 2.91 ± 0.45 |
| KKCGRENWTVAFAPDGSYFAWSQG [WSB1] | 2.33 ± 0.53 | 2.22 ± 0.31 |
| MSVSEIFVELQGFLAAEQDIREEI [TSN] | 2.39 ± 0.42 | 2.72 ± 0.26 |
| SPTDIQDSSIIRTTQDLFAINRDT [RHOBTB3] | 4.47 ± 0.15 | 4.67 ± 0.44 |
| VMFKEPIEILPNVCYTACATLKGP [BTBD1] | 2.12 ± 0.22 | 2.14 ± 0.26 |
| TVASMMHRQETVDCLKKFNARRKL [CAMK2D] | 3.17 ± 0.15 | 3.73 ± 0.72 |
| ELEQQIWKERDEYITKVSEEVTRL [TRIM15] | 3.94 ± 0.21 | 3.95 ± 0.27 |
| EEEKEPLAVDSWWLDPGHTAVAQA [SERTAD1] | 4.8 ± 0.27 | 4.88 ± 0.23 |
| SVFSARDRDPNSLLISCAVSYRGA [TNXB] | 2.4 ± 0.22 | 2.06 ± 0.16 |
| DKCMVCGGDGSGCSKQSGSFRKFR [ADAMTS4] | 2.14 ± 0.11 | 3.25 ± 0.85 |
| QFLDIGPDVTRVGLLQYGSTVKNE [MATN2] | 3.55 ± 0.14 | 3.65 ± 0.45 |
| AFDFDYGNCKYKVDCACLKENPEC [KMT2E] | 3.53 ± 0.17 | 3.54 ± 0.42 |
| LQLYFWKDREFHELQGDFSVPDVP [VPS39] | 2.02 ± 0.46 | 2.17 ± 0.22 |
| EAEVTILFYFFLYQYCSIHCSDRK [CSTF3] | 2.57 ± 0.56 | 2.53 ± 0.15 |
| LRGKFKRPPLRRVRMSADAMLKAL [TNNI2] | 2.25 ± 0.46 | 2.4 ± 0.14 |
| HPPSHWPLIKATVGLIRNLALCPA [CTNNB1] | 2.65 ± 0.53 | 2.81 ± 0.88 |

Reference: the supplement of paper PMC10567573
